# Results from patent publication US20250026849A1 (ARCELLX, published 2025).
# B1: D domain SEQ ID NO: 763 (designed binder)
# chain: MGSWWEFEDRLMAIYDRLYALGGSEAELAAFEKEIAAFESELQAYKGKGNPEVEYLRAEAALIRETLQAYRHN
# B2: D domain SEQ ID NO: 764 (designed binder)
# chain: MGSWFEFEDRLYAIEDRLYALGGSEAELAAFEKEIAAFESELQAYKGKGNPEVEYLRWGAATIRDELQAYRHN
# B3: D domain SEQ ID NO: 733 (designed binder)
# chain: MGSWNEFYDRLSAIYFRLQALGGSEAELAAFEKEIAAFESELQAYKGKGNPEVEHLRWYAADIRMILQAYRHN
# B4: D domain SEQ ID NO: 731 (designed binder)
# chain: MGSWYEFYNRLSAIYARLQALGGSEAELAAFEKEIAAFESELQAYKGKGNPEVEDLRWYAADIRYMLQAYRHN
# B5: D domain SEQ ID NO: 732 (designed binder)
# chain: MGSWYEFYDRLSAIYARLQALGGSEAELAAFEKEIAAFESELQAYKGKGNPEVEDLRWYAADIRYMLQAYRHN
# B6: D domain SEQ ID NO: 737 (designed binder)
# chain: MGSWKEFDNRLYAIEDRLRALGGSEAELAAFEKEIAAFESELQAYKGKGNPEVEHLRWYAADIRMILQAYRHN
# B7: D domain SEQ ID NO: 735 (designed binder)
# chain: MGSWEEFYDRLGAIFARLHALGGSEAELAAFEKEIAAFESELQAYKGKGNPEVEDLRWYAADIRMILQAYRHN
# B8: D domain SEQ ID NO: 736 (designed binder)
# chain: MGSWVEFYDRLHAIYFRLLALGGSEAELAAFEKEIAAFESELQAYKGKGNPEVEDLRWYAADIRLVLQAYRHN
# B9: D domain SEQ ID NO: 734 (designed binder)
# chain: MGSWNEFYDRLSAIYFRLQALGGFEAELAAFEKEIAAFESELQAYKGKGNPEVEHLRWYAADIRMILQAYRHN
# B10: D domain SEQ ID NO: 769 (designed binder)
# chain: MGSWFEFVDRLEAIEMRLFALGGSEAELAAFEKEIAAFESELQAYKGKGNPEVELLRWRAAMIRYDLQAYRHN
# B11: HER2-binding D domain SEQ ID NO: 823 (designed binder)
# chain: MGSWSEFWFRLHAILYRLQALGGSEAELAAFEKEIAAFESELQAYKGKGNPEVETLRDAAAEIRVALQAYRHN
# B12: HER2-binding D domain SEQ ID NO: 812 (designed binder)
# chain: MGSWVNFKTHLARIKVHLEALGGSEAELALFEHDIANFEQVLQQYKGKGNPEVEALRKEAAAIRDELQAYRHN
# B13: HER2-binding D domain SEQ ID NO: 813 (designed binder)
# chain: MGSWLVFKDELAGIKNYLEALGGSEAELATFEQDIAWFEQWLQNYKGKGNPEVEALRKEAAAIRDELQAYRHN
# B14: HER2-binding D domain SEQ ID NO: 825 (designed binder)
# chain: MGSWVEFWIRLNAIKYRLLALGGSEAELAAFEKEIAAFESELQAYKGKGNPEVEKLRQDAADIRELLQAYRHN
# B15: HER2-binding D domain SEQ ID NO: 827 (designed binder)
# chain: MGSWWEFYLRLRAISYRLQALGGSEAELAAFEKEIAAFESELQAYKGKGNPEVEGLRQDAAEIRKLLQAYRHN
# B16: HER2-binding D domain SEQ ID NO: 826 (designed binder)
# chain: MGSWTEFWWRLSAIVYRLNALGGSEAELAAFEKEIAAFESELQAYKGKGNPEVEELRDMAADIRSLLQAYRHN
# B17: HER2-binding D domain SEQ ID NO: 809 (designed binder)
# chain: MGSWYEFRWRLHAIWLRLGALGGSEAELAAFEKEIAAFESELQAYKGKGNPEVEWLRQDAAQIRYILQAYRHN
# notes: also called eb08
# B18: HER2-binding D domain SEQ ID NO: 828 (designed binder)
# chain: MGSWWEFHVRLRAIEYRLEALGGSEAELAAFEKEIAAFESELQAYKGKGNPEVEQLRLIAANIRHLLQAYRHN
# B19: HER2-binding D domain SEQ ID NO: 831 (designed binder)
# chain: MGSWWEFQVRLAAIEYRLKALGGSEAELAAFEKEIAAFESELQAYKGKGNPEVENLRQLAAHIRSVLQAYRHN
# B20: HER2-binding D domain SEQ ID NO: 829 (designed binder)
# chain: MGSWWEFHVRLKAIEYRLLALGGSEAELAAFEKEIAAFESELQAYKGKGNPEVEDLRYIAANIRQLLQAYRHN
# B21: HER2-binding D domain SEQ ID NO: 814 (designed binder)
# chain: MGSWKTFKIELAGIKLELEALGGSEAELAGFENAIAQFESSLQYYKGKGNPEVEALRKEAAAIRDELQAYRHN
# notes: also called eb04
# B22: HER2-binding D domain SEQ ID NO: 815 (designed binder)
# chain: MGSWWEFKVRLSAIQYRLYALGGSEAELAAFEKEIAAFESELQAYKGKGNPEVEALREQAALIRTILQAYRHN
# B23: HER2-binding D domain SEQ ID NO: 817 (designed binder)
# chain: MGSWWEFQVRLRAIQYRLNALGGSEAELAAFEKEIAAFESELQAYKGKGNPEVEYLRGLAAQIRFDLQAYRHN
# B24: HER2-binding D domain SEQ ID NO: 822 (designed binder)
# chain: MGSWWEFKVRLRAIEYRLSALGGSEAELAAFEKEIAAFESELQAYKGKGNPEVEELRVLAASIRIHLQAYRHN
# B25: HER2-binding D domain SEQ ID NO: 818 (designed binder)
# chain: MGSWWEFKIRLYAIEYRLNALGGSEAELAAFEKEIAAFESELQAYKGKGNPEVEALRAKAAQIRYNLQAYRHN
# B26: HER2-binding D domain SEQ ID NO: 824 (designed binder)
# chain: MGSWIEFWVRLNAILYRLYALGGSEAELAAFEKEIAAFESELQAYKGKGNPEVEALRDSAAEIRRWLQAYRHN
# B27: HER2-binding D domain SEQ ID NO: 816 (designed binder)
# chain: MGSWWEFHIRLHAINYRLAALGGSEAELAAFEKEIAAFESELQAYKGKGNPEVEALRELAAKIRGDLQAYRHN
# B28: HER2-binding D domain SEQ ID NO: 811 (designed binder)
# chain: MGSWWGFKVNLAWIKWKLEALGGSEAELAYFELWIANFEHSLQEYKGKGNPEVEALRKEAAAIRDELQAYRHN
# B29: HER2-binding D domain SEQ ID NO: 810 (designed binder)
# chain: MGSWHEFLRRLLAIEMRLYALGGSEAELAAFEKEIAAFESELQAYKGKGNPEVEHLRVRAASIRQMLQAYRHN
# notes: also called eb05
# B30: HER2-binding D domain SEQ ID NO: 819 (designed binder)
# chain: MGSWFEFNIRLHAIEYRLKALGGSEAELAAFEKEIAAFESELQAYKGKGNPEVEELRNYAASIRKLLQAYRHN
# B31: HER2-binding D domain SEQ ID NO: 820 (designed binder)
# chain: MGSWFEFEIRLRAIEYRLSALGGSEAELAAFEKEIAAFESELQAYKGKGNPEVEKLRELAAEIRYALQAYRHN
# B32: HER2-binding D domain SEQ ID NO: 821 (designed binder)
# chain: MGSWFEFKIRLYAIQYRLSALGGSEAELAAFEKEIAAFESELQAYKGKGNPEVEELRNLAAEIRHSLQAYRHN
# Target: T1, CD123 (Homo sapiens (Human), UniProt P26951 19-305, limits assumed)
# T1 construct: also called CD123-Signal
# T1 sequence: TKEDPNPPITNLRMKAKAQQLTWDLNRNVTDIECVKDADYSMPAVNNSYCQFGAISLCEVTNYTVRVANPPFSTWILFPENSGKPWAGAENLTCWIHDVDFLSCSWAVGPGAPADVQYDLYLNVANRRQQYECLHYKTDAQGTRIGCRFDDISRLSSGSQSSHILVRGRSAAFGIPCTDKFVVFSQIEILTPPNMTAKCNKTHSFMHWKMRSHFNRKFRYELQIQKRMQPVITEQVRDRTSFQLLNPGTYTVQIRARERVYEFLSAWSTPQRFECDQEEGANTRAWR
# Experiment: ELISA, format not described
# Parameters: unit not given here
row,Binder,ELISA_avg
1,B1,15.3
2,B2,4.7
3,B3,10.6
4,B4,10.6
5,B5,5.3
6,B6,3.9
7,B7,3.9
8,B8,4.8
9,B9,9
10,B10,7.1

# Target: T2, HER2 (human, UniProt P04626 23-652)
# T2 construct: The ELISA is not described; also called ERBB2; CD340
# Experiment: ELISA, format not described
# Parameters: unit not given here
row,Binder,ELISA_avg
1,B11,14.8
2,B12,7.91
3,B13,3.28
4,B14,10.6
5,B15,5.1
6,B16,5.76
7,B17,7.18
8,B18,5.48
9,B19,6.33
10,B20,4.56
11,B21,4.95
12,B22,5.17
13,B23,14.4
14,B24,10.1
15,B25,4.49
16,B26,3.91
17,B27,11.9
18,B28,8.69
19,B29,8.15
20,B30,7.86
21,B31,7.75
22,B32,13.1
